The record followed here is paper PMC10397247.

Test [1] deals with T1, APC3645-AA.
T1 chain: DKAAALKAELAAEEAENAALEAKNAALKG
The test can be described thus: two-hybrid library CCmax.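 Note: natural log of median RNA to DNA barcode read ratio; higher means stronger binding.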 The following applies: mean of both orientations.

For test [2], the target named is T2, APC4436-AA.
T2 chain: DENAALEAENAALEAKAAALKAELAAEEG
The test can be described thus: two-hybrid library CCmax.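 Note: natural log of median RNA to DNA barcode read ratio; higher means stronger binding.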 The following applies: mean of both orientations.

The target of test [3] is T3, APC6108-AA.
T3 chain: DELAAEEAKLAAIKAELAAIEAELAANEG
Kind of test: two-hybrid library CCmax.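 Note: natural log of median RNA to DNA barcode read ratio; higher means stronger binding.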 The following applies: mean of both orientations.

Test [4] deals with T4, APC8910-AA.
T4 chain: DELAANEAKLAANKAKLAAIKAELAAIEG
The test can be described thus: two-hybrid library CCmax.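 Note: natural log of median RNA to DNA barcode read ratio; higher means stronger binding.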 To be noted: mean of both orientations.

The target in test [5] is T5, 4H716-AA.
T5 chain: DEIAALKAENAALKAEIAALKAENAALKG
The test can be described thus: two-hybrid library CCmax.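 Note: natural log of median RNA to DNA barcode read ratio; higher means stronger binding.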 To be noted: mean of both orientations.

The target of test [6] is T6, 4H2458-AA.
T6 chain: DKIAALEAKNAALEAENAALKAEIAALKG
Kind of test: two-hybrid library CCmax.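 Note: natural log of median RNA to DNA barcode read ratio; higher means stronger binding.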 To be noted: mean of both orientations.

Test [7] addresses T7, 4H807-AA.
T7 chain: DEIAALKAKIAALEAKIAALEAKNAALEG
Kind of test: two-hybrid library CCmax. The following applies: mean of both orientations.

Test [8] deals with T8, APC232-AA.
T8 chain: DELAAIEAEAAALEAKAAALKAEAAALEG
The test can be described thus: two-hybrid library CCmax. To be noted: mean of both orientations.

Test [9] deals with T9, APC5383-AA.
T9 chain: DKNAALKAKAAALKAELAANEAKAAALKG
The test can be described thus: two-hybrid library CCmax. To be noted: mean of both orientations.

Test [10] concerns the target T10, 4H2148-AA.
T10 chain: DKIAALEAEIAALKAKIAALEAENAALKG
The test can be described thus: two-hybrid library CCmax. To be noted: mean of both orientations.

In test [11] the target is T11, APC4264-AA.
T11 chain: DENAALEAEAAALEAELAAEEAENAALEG
Kind of test: two-hybrid library CCmax. To be noted: mean of both orientations.

In test [12] the target is T12, APC9096-AA.
T12 chain: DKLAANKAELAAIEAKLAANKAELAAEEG
Kind of test: two-hybrid library CCmax. The following applies: mean of both orientations.

The target in test [13] is T13, 4H733-AA.
T13 chain: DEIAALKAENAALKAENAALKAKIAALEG
The test can be described thus: two-hybrid library CCmax. To be noted: mean of both orientations.

Test [14] deals with T14, APC9319-AA.
T14 chain: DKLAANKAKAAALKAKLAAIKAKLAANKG
The test can be described thus: two-hybrid library CCmax. To be noted: mean of both orientations.

The target in test [15] is T15, APC4011-AA.
T15 chain: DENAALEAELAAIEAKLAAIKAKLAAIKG
Kind of test: two-hybrid library CCmax. To be noted: mean of both orientations.

Test [16] has as its target T16, APC1434-AA.
T16 chain: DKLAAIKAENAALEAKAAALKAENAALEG
Kind of test: two-hybrid library CCmax. The following applies: mean of both orientations.

The target in test [17] is T17, APC7099-AA.
T17 chain: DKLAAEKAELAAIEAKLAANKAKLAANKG
The test can be described thus: two-hybrid library CCmax. The following applies: mean of both orientations.

The target in test [18] is T18, 4H2290-AA.
T18 chain: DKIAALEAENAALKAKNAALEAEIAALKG
Kind of test: two-hybrid library CCmax. The following applies: mean of both orientations.

Test [19] has as its target T19, 4H2143-AA.
T19 chain: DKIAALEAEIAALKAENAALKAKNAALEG
The test can be described thus: two-hybrid library CCmax.

In test [20] the target is T20, APC2405-AA.
T20 chain: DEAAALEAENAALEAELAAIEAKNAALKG
Kind of test: two-hybrid library CCmax. The following applies: mean of both orientations.

Test [21] addresses T21, APC1015-AA.
T21 chain: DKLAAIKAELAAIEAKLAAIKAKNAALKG
The test can be described thus: two-hybrid library CCmax. The following applies: mean of both orientations.

Test [22] addresses T22, 4H2447-AA.
T22 chain: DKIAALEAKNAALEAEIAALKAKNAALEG
The test can be described thus: two-hybrid library CCmax. To be noted: mean of both orientations.

Test [23] deals with T23, APC2237-AA.
T23 chain: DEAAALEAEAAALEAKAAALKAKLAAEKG
The test can be described thus: two-hybrid library CCmax. The following applies: mean of both orientations.

The target of test [24] is T24, APC8191-AA.
T24 chain: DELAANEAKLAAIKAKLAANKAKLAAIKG
The test can be described thus: two-hybrid library CCmax. The following applies: mean of both orientations.

For test [25], the target named is T25, 4H3330-AA.
T25 chain: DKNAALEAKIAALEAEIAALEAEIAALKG
Kind of test: two-hybrid library CCmax. To be noted: mean of both orientations.

The target in test [26] is T26, 4H850-bH.
T26 chain: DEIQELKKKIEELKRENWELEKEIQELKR
Kind of test: two-hybrid library CCNG1.

The target in test [27] is T27, 4H1710-bH.
T27 chain: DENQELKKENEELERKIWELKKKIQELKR
Kind of test: two-hybrid library CCNG1.

The target of test [28] is T28, 4H1629-bH.
T28 chain: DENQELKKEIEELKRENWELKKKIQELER
The test can be described thus: two-hybrid library CCNG1.

For test [29], the target named is T29, 4H570-bH.
T29 chain: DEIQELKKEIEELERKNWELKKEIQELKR
Kind of test: two-hybrid library CCNG1.

The target in test [30] is T30, 4H1804-bH.
T30 chain: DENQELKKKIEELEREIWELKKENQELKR
The test can be described thus: two-hybrid library CCNG1.

The target in test [31] is T31, 4H3974-bH.
T31 chain: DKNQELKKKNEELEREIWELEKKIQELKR
The test can be described thus: two-hybrid library CCNG1.

Test [32] addresses T32, 4H584-bH.
T32 chain: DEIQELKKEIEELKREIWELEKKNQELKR
Kind of test: two-hybrid library CCNG1.

The target of test [33] is T33, 4H1449-bH.
T33 chain: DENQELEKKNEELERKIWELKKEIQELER
The test can be described thus: two-hybrid library CCNG1.

The target in test [34] is T34, 4H3129-bH.
T34 chain: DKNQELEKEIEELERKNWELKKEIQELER
The test can be described thus: two-hybrid library CCNG1.

For test [35], the target named is T35, 4H619-bH.
T35 chain: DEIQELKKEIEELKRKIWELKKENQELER
The test can be described thus: two-hybrid library CCNG1.

In test [36] the target is T36, 4H1359-bH.
T36 chain: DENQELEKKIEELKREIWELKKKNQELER
Kind of test: two-hybrid library CCNG1.

Test [37] deals with T37, 4H1393-bH.
T37 chain: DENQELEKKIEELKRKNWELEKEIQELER
Kind of test: two-hybrid library CCNG1.

The target in test [38] is T38, 4H3817-bH.
T38 chain: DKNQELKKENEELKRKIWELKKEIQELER
Kind of test: two-hybrid library CCNG1.

Test [39] addresses T39, 4H932-bN.
T39 chain: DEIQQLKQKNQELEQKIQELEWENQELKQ
Kind of test: two-hybrid library CCNG1.

For test [40], the target named is T40, 4H3638-bH.
T40 chain: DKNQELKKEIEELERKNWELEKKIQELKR
The test can be described thus: two-hybrid library CCNG1.

Test [41] addresses T41, 4H3172-bH.
T41 chain: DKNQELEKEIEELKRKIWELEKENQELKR
The test can be described thus: two-hybrid library CCNG1.

For test [42], the target named is T42, 4H1985-bH.
T42 chain: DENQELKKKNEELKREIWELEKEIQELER
The test can be described thus: two-hybrid library CCNG1.

Test [43] has as its target T43, 4H3414-bH.
T43 chain: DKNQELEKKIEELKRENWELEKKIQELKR
The test can be described thus: two-hybrid library CCNG1.

Test [44] concerns the target T44, 4H3631-bH.
T44 chain: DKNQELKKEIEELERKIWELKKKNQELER
The test can be described thus: two-hybrid library CCNG1.

Test [45] addresses T45, 4H906-bH.
T45 chain: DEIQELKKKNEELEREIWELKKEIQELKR
Kind of test: two-hybrid library CCNG1.

B1: 4H2143-AA (peptide)
chain: DKIAALEAEIAALKAENAALKAKNAALEG
Turning to B1, the interaction score was -1.25 in test [1]; -1.85 in [2]; -1.49 in test [3]; -1.84 in test [4]; -1.59 in [5]; -1.32 in test [6]. The interaction score in test [7] was -1.57; in [8], -2.06; in [9] it was -1.98; in test [10] it was -1.43; in test [11] it was -1.81; in test [12] it was -1.82. For the same molecule, the interaction score in test [13] is -1.41; in [14], -1.6; in [15] it was -0.0916; in test [16], -1.23; in test [17], -1.51; in [18] it was -1.42. Moreover, the interaction score is 2.12 in [19]; -1.48 in test [20]; -1.78 in test [21]; -1.64 in [22]; -1.56 in test [23]; -1.3 in [24]. In addition, the interaction score in [25] is -0.836.

B2: 4H1359-bH (peptide)
chain: DENQELEKKIEELKREIWELKKKNQELER
As for B2, the interaction score is -0.848 in [26]; -0.389 in [27]; -0.6 in test [28]; -1.09 in [29]; 0.574 in test [30]; 0.477 in test [31]. In addition, the interaction score is 0.303 in test [32]; 0.00778 in [33]; -0.249 in test [34]; -0.165 in [35]; 0.989 in test [36]; -0.756 in test [37]. Besides, the interaction score is 0.0285 in test [38]; -1.75 in [39]; -0.989 in test [40]; -0.46 in test [41]; 0.67 in test [42]; -0.291 in [43]. For the same molecule, the interaction score in [44] was determined as 0.884; in test [45], 0.0222.
